Experimental data taken from article PMC4664405, “Mapping Soluble Guanylyl Cyclase and Protein Disulfide Isomerase Regions of Interaction” (PLoS ONE, 2015).

T1: soluble guanylyl cyclase (sGC) α subunit, of the purified reduced sGC (human, UniProt Q02108 1-690)
T1 construct: soluble guanylyl cyclase α subunit, human GCYA3; called full-length reduced sGC in the discussion; cross-linked lysines K5, K606, K672, K673, K685; Bought as the α/β heterodimer and reduced before incubation with PDI; also called GCYA3; source: bought: Axxora
T1 sequence (looked up): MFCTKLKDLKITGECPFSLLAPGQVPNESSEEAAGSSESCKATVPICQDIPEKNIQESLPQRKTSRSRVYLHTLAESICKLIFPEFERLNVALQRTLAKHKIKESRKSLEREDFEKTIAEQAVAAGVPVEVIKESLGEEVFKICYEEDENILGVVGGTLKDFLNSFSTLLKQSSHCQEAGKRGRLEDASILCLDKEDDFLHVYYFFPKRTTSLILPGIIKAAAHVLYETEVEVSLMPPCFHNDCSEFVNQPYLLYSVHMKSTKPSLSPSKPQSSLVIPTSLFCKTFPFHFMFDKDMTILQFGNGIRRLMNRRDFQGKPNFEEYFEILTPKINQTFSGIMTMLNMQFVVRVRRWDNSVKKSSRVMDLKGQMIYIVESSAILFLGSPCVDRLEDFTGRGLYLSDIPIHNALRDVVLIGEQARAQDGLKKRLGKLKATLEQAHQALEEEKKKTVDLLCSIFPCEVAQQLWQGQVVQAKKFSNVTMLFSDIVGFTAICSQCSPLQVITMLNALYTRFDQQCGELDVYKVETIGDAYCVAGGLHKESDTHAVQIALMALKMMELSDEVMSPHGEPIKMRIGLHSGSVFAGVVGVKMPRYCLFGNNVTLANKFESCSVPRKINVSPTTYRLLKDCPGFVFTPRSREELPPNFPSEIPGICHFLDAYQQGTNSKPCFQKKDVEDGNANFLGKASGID

B1: soluble guanylyl cyclase (sGC) β subunit, of the purified reduced sGC (enzyme, human, UniProt Q02153 1-619, looked up)
chain: MYGFVNHALELLVIRNYGPEVWEDIKKEAQLDEEGQFLVRIIYDDSKTYDLVAAASKVLNLNAGEILQMFGKMFFVFCQESGYDTILRVLGSNVREFLQNLDALHDHLATIYPGMRAPSFRCTDAEKGKGLILHYYSEREGLQDIVIGIIKTVAQQIHGTEIDMKVIQQRNEECDHTQFLIEEKESKEEDFYEDLDRFEENGTQESRISPYTFCKAFPFHIIFDRDLVVTQCGNAIYRVLPQLQPGNCSLLSVFSLVRPHIDISFHGILSHINTVFVLRSKEGLLDVEKLECEDELTGTEISCLRLKGQMIYLPEADSILFLCSPSVMNLDDLTRRGLYLSDIPLHDATRDLVLLGEQFREEYKLTQELEILTDRLQLTLRALEDEKKKTDTLLYSVLPPSVANELRHKRPVPAKRYDNVTILFSGIVGFNAFCSKHASGEGAMKIVNLLNDLYTRFDTLTDSRKNPFVYKVETVGDKYMTVSGLPEPCIHHARSICHLALDMMEIAGQVQVDGESVQITIGIHTGEVVTGVIGQRMPRYCLFGNTVNLTSRTETTGEKGKINVSEYTYRCLMSPENSDPQFHLEHRGPVSMKGKKEPMQVWFLSRKNTGTEETKQDDD
notes: soluble guanylyl cyclase β subunit, human GCYB1; called full-length reduced sGC in the discussion; cross-linked lysines K127, K187, K559, K615; Bought as the α/β heterodimer and reduced before incubation with PDI; also called GCYB1; source: bought: Axxora

What was measured:
[1] = target: T1, soluble guanylyl cyclase (sGC) α …; assay: cross-linking; reduced sGC and oxidized PDI incubated, 50 molar excess of BS3 for 30 minutes at room temperature (22°C) in the dark, alkylated with 40 mM iodoacetamide, non-reducing 7.5% TGX gel, bands digested with trypsin, RPLC-MS/MS, MassMatrix search; details: both partners purified
[2] = target: B1; assay: as above; details: both partners purified

Binder	binding result [1]	binding result [2]
protein disulfide isomerase (PDI), oxidized, purified (enzyme, oxidized: each active site Cys-x-x-Cys forms a disulfide bond, protein disulfide isomerase, human P4HB; called full-length oxidized PDI in the discussion; cross-linked lysines K370 and K409; also called oxidized PDI; oxPDI; source: PDI in pTRC-HisA, purified as described previously [11]) not shown	binds	binds
B1	binds	
